Values of other authors, collected in PMC4114557.
Where two headings read alike, the source gives them in different places.

Tests used:
[1] = biological target: Colicin E3 R-domain (Escherichia coli) (UniProt P00646)
[2] = biological target: Colicin E9 R-domain (Escherichia coli) (UniProt P09883)
BtuB (Escherichia coli) [3] = biological target: BtuB (Escherichia coli) (UniProt P06129)
BtuB (Escherichia coli) [4] = biological target: BtuB (Escherichia coli) (UniProt P06129); remark: listed apart in the source
OmpF (Escherichia coli) [5] = biological target: OmpF (Escherichia coli) (UniProt P02931)
UniProt P02931, sequence (P02931 23-362): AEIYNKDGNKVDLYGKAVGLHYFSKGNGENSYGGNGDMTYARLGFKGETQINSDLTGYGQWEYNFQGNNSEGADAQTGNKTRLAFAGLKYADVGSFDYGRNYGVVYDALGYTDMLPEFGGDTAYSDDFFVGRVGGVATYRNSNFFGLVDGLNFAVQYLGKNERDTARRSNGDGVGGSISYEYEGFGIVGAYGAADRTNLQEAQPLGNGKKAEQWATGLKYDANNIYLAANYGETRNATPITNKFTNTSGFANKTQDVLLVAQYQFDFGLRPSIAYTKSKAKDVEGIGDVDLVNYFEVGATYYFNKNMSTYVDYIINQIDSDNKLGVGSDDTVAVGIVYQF

OmpF (Escherichia coli) [6] = biological target: OmpF (Escherichia coli) (UniProt P02931); remark: listed apart in the source
BtuB (Escherichia coli) [7] = biological target: BtuB (Escherichia coli) (UniProt P06129); remark: listed apart in the source
OmpF (Escherichia coli) [8] = biological target: OmpF (Escherichia coli) (UniProt P02931); remark: listed apart in the source

For BtuB (from UniProt P06129), the Kd [1] is listed as 1 nM and the Kd [2] is listed as 1 nM.

For “Colicin E2 R-domain (from UniProt P04419)”, the Kd (BtuB (Escherichia coli) [3]) is given as 1 nM.

For “Colicin E3 R-domain (from UniProt P00646)”, the Kd (BtuB (Escherichia coli) [4]) is given as 1 nM.

In the case of Colicin E9 OBS1 (from UniProt P09883), the Kd (OmpF (Escherichia coli) [5]) is listed as 2000 nM.

In the case of Colicin E9 OBS2 (from UniProt P09883), the Kd (OmpF (Escherichia coli) [6]) is listed as 24000 nM.

For “Colicin E9 R-domain (from UniProt P09883)”, the Kd (BtuB (Escherichia coli) [7]) is listed as 1 nM.

For “Colicin N T-domain (from UniProt P08083)”, the Kd (OmpF (Escherichia coli) [8]) is listed as 3000 nM.
